# Test results reported in patent publication US20210100916A1, “PREPARATION AND USE OF MITOCHONDRION-TARGETING SELF-ASSEMBLED PROTEIN NANOPARTICLE” (PEKING UNIVERSITY, priority 2018, published 2021).
# Legend:
# U87MG cells = assay: ROS content in cells (DCFH-DA probe, confocal imaging); format: cell-based; conditions: 6 μmo/L, 24 hours, 10 μmol/L DCFH-DA, FIGS. 6 and 7
# Procedure: Taking U87MG cell line as an example, 5×10^4 U87MG cells were added to a confocal dish and incubated overnight at 37° C. and 5% CO2; GSTP1-MT3(Fe^2+) and GSTP1-MT3(Co^2+) prepared in Example 3 were added to it (the final concentration was 6 μmo/L) and incubated again for 24 hours, and then washed with PBS for three times; then, 10 μmol/L DCFH-DA (ROS probe) was added, incubated at 37° C. for 30 minutes, and washed with PBS for three times; finally, confocal imaging was performed, and statistics was performed on the ROS content.
# [1] = Body weight / toxicity during breast cancer treatment; format: in vivo, Balb/c mice; conditions: 100 μL of 30 pmol/L tail vein, 5 injections, vs PBS
# Procedure: Taking the breast cancer of Balb/c mice as an example, 3×10^6 4T1 (stable transfected Luciferase) breast cancer cells were inoculated into Balb/c mice; when the tumor grew to 50-70 mm^3, 100 μL of 30 pmol/L GSTP1-MT3(Co^2+) was injected through the tail vein as the experimental group, and 100μL of PBS was injected through the tail vein as the control group. The injection was performed once every two days, that is, the tail vein injection was performed on the 3rd, 5th, 7th, 9th and 11th day of the experiment, respectively. A total of 5 injections were given. The weights of the mice and the size of the tumor were recorded at different time points.
substance,measurement,setting,value
GSTP1-MT3(Co^2+): Self-assembled protein nanoparticle of MT3-GGGGS-GSTP1 fusion protein (SEQ ID NO: 4) induced by Co^2+,ROS content in cells,U87MG cells,significantly increase
same,"body weights, experimental group vs control group",[1],not much different
same,toxic or side effects on mice,[1],no obvious toxic or side effects
